T1: human IL-2Rβ (human, UniProt P14784 27-239)
T1 sequence (looked up): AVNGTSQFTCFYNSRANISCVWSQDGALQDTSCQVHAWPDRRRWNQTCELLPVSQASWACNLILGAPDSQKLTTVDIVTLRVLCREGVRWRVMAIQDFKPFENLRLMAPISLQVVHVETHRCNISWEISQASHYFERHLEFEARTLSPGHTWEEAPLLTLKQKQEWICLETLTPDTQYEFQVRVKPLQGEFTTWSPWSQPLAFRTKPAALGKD

T2: human gamma (γ) common chain expressed on CHO cells (human, UniProt P31785 23-369)
T2 construct: whole, on cells; Control protein; also called human IL-2R-γ common subunit; human γ-common
T2 sequence (looked up): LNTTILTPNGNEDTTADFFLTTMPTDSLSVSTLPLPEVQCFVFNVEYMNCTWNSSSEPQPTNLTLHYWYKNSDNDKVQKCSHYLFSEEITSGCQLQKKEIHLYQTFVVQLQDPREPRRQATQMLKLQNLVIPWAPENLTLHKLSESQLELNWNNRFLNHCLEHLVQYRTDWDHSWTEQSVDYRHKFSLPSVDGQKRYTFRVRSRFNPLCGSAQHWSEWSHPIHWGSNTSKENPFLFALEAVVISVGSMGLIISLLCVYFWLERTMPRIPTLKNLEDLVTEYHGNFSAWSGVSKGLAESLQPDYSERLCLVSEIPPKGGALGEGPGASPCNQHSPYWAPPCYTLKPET


Legend:
[1] = target: T3, human soluble IL-4R (human, UniProt P24394 26-232, limits assumed); assay: SPR, Ab captured
T3 construct: also called human sIL-4R
Experimental: (§1) The specificity of binding of a subset of transiently expressed anti-IL-21R binding proteins (here antibodies) was tested on a BIACORE™ 2000 surface plasmon resonance instrument. Anti-human-IgG, anti-murine immunoglobulin antibodies, and murine IL-21R-H/F were immobilized onto a research-grade carboxymethyl-dextran chip (CM5) using standard amine coupling. The sensor chip surface was activated with EDC/NHS for 7 min at a flow rate of 20 μl/min. The first flow cell was used as reference surface to correct for bulk refractive index, matrix effects, and nonspecific binding. […] Remaining activated groups were blocked with 1.0 M ethanolamine (pH 8.0). The molecular weights of the anti-human IgG and the anti-murine IgG were both 150 kD, and the molecular weight of the IL-21R monomer was 27 kD.
(§2) Conditioned media containing anti-IL-21R antibodies and antibody controls (murine anti-human IL-2Rβ and murine anti-human IL-4R(R&D Systems, Minneapolis, Minn.); human anti-human IL-13 (Wyeth, Cambridge, Mass.)) were diluted in HBS/EP buffer supplemented with 0.2% bovine serum and injected onto all four flow cells of the BIACORE™ chip, capturing 500-700 (RU) of antibody on the species-appropriate capture antibody. Following a 5 sec washing period, 50 nM solutions of a positive control protein (murine IL-21R-H/F), two human proteins related to IL-21R (human IL-2Rβ and human sIL-4R(R&D Systems)), or an unrelated His/FLAG-tagged protein (human IL-13-H/F) were injected over the captured antibodies on the chip. The association and dissociation phases were monitored for 120 and 180 sec, respectively, followed by two 5 μl injections of glycine (pH 1.5) to regenerate a fully active capturing surface. All binding experiments were done at 25° C. in HBS/EP buffer. Blank and buffer effects were subtracted for each sensorgram using double referencing.

[2] = target: T4, human IL-13-His/FLAG (human, UniProt P35225 35-146, limits assumed); assay: SPR, Ab captured
T4 construct: Unrelated His/FLAG-tagged control; also called human IL-13-H/F
T4 sequence (P35225 35-146 limits assumed): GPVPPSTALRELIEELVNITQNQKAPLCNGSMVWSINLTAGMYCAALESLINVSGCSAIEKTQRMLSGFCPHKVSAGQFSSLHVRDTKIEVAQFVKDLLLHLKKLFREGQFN
Experimental: as §1, §2

[3] = target: T1, human IL-2Rβ; assay: SPR, Ab captured
Experimental: as §1, §2

[4] = target: T5, rat IL-21R expressed on cells (rat); assay: cell ELISA, CHO cells
T5 construct: whole, on cells
Experimental: (§3) A subset of binding proteins was tested for binding to rat, cynomolgus monkey, human IL-21R, or human IL-2R-γ common subunit expressed transiently on the surfaces of CHO-PA-Dukx cells. Cells were transfected 48 hr prior to the assay. On the day of the assay, cells were washed gently 5× in PBS containing 0.9 mM CaCl₂ and 0.45 mM MgCl₂ (PBS/CaMg) on an automated plate washer (Titertek, Huntsville, Ala.), and blocked for 1 hr at RT in PBS/CaMg/5% nonfat dry milk. Conditioned media from transiently expressed anti-IL-21R IgGs were serially diluted in blocking buffer and added to the cells in the blocked plates for 1 hr at RT. Cells were washed 5× with PBS/CaMg and then incubated with horseradish peroxidase-conjugated anti-human IgG for 1 hr at RT. Cells were then washed 10× in PBS/CaMg and all of the wash buffer was removed. Cells were incubated with 100 μl TMB until the color reaction reached saturation, stopped with 100 μl of 0.18 M H₂SO₄, and read at A450 on a Perkin Elmer ENVISION™ plate reader.

[5] = target: T6, human IL-21R expressed on cells (human, UniProt Q9HBE5 20-538); assay: cell ELISA, CHO cells
T6 construct: also called human IL-21R-BaF3; human IL-21R-TF1
T6 sequence (Q9HBE5 20-538 limits assumed): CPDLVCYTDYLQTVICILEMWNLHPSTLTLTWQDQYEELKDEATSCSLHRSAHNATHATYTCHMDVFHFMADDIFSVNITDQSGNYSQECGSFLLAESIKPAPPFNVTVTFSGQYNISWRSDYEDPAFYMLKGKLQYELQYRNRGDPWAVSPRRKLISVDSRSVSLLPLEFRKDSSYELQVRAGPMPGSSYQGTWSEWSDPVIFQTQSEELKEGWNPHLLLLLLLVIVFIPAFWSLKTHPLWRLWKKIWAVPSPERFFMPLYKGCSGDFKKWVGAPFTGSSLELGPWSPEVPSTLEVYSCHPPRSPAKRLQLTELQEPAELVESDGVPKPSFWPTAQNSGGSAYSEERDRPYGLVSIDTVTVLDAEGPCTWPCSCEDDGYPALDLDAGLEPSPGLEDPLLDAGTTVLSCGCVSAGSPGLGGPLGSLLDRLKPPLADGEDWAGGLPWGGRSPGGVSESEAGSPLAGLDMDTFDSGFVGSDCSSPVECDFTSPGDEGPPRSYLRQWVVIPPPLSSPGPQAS
Experimental: as §3

[6] = target: T7, cynomolgus monkey IL-21R expressed on cells (cynomolgus monkey, UniProt G7Q0S8 41-559); assay: cell ELISA, CHO cells
T7 construct: whole, on cells
Experimental: as §3

[7] = target: T7, cynomolgus monkey IL-21R expressed on …; assay: cell-based ELISA on CHO cells transiently expressing cynomolgus monkey IL-21R; HRP anti-human IgG, A450
Experimental: (§4) FIG. 6(a-l) depicts the binding of 21 anti-IL-21R IgGs to CHO cells transiently expressing human IL-21R (FIGS. 6a-c), rat IL-21R (FIGS. 6d-f), cynomolgus monkey IL-21R (FIGS. 6g-i), and human gamma common chain (FIGS. 6j-1). CHO cells were transiently transfected with IL-21R or the control gamma common chain, and binding was detected with HRP-conjugated anti-human IgG in a cell-based ELISA.
as §3

[8] = target: T6, human IL-21R expressed on cells; assay: cell-based ELISA on CHO cells transiently expressing human IL-21R; HRP anti-human IgG, A450
Experimental: as §4, §3

[9] = target: murine IL-21R expressed on cells (murine, UniProt Q9JHX3 20-529); assay: cell-based or functional assay
Sequence of murine IL-21R expressed on cells (Q9JHX3 20-529 limits assumed): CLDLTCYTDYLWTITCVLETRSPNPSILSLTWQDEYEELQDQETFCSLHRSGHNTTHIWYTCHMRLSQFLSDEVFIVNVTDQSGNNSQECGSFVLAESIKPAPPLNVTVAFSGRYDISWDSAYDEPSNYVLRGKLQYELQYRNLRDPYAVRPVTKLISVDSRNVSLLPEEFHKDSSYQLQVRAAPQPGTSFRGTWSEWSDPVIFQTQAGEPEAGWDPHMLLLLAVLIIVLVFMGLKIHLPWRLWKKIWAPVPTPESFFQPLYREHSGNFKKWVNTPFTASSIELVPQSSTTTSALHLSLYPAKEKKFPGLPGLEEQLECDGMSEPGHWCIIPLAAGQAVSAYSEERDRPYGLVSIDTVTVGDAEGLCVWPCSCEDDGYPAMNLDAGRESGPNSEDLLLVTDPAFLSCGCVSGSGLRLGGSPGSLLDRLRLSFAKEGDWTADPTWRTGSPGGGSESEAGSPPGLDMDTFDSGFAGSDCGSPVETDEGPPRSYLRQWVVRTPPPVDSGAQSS

[10] = target: T6, human IL-21R expressed on cells; assay: cell-based or functional assay
[11] = target: T2, human gamma (γ) common chain expressed …; assay: cell ELISA, CHO cells
Experimental: as §3

[12] = target: T2, human gamma (γ) common chain expressed …; assay: cell-based ELISA on CHO cells transiently expressing human gamma common chain; HRP anti-human IgG, A450
Experimental: as §4, §3

[13] = target: T5, rat IL-21R expressed on cells; assay: cell-based ELISA on CHO cells transiently expressing rat IL-21R; HRP anti-human IgG, A450
Experimental: as §4, §3

| binding result [1] | binding result [2] | binding result [3] | A450 (13 nM Ab) [4] [A450] | A450 (13 nM Ab) [5] [A450] | A450 (13 nM Ab) [6] [A450] | EC50 (read off the curve) [7] [nM] | EC50 (read off the curve) [8] [nM] | Murine IL-21R-BaF3 Proliferation IC50 [9] [nM] | Human IL-21R-BaF3 Proliferation IC50 [10] [nM] | Human IL-21R-TF1 Proliferation IC50 [10] [nM] | A450 (13 nM Ab) [11] [A450] | binding result [12] | EC50 (read off the curve) [13] [nM] | Binder |
| --- | --- | --- | --- | --- | --- | --- | --- | --- | --- | --- | --- | --- | --- | --- |
| no binding (tested: 50 nM) | no binding (tested: 50 nM) | no binding (tested: 50 nM) | 0.874 | 1.25 | 1.38 | ~2 | ~0.9 | 0.01 | 0.91 | 2.67 | – | – | – | AbD (antibody, IgG1, V domains shown, As for AbA: IgG1/lambda, CDR3 graft, residue limits derived; also called VHP/VL13) VH: QVQLQESGPGLVKPSETLSLTCAVSGYSISSGYYWGWIRQPPGKGLEWIGSISHTGNTYYNPPLKSRVTISVDTSKNQFSLKLSSVTAADTAVYYCARGGGISRPEYWGQGTLVTVSS VL: SSELTQDPAVSVALGQTVRITCQGDSLRTYYASWYQQKPGQAPVLVIYGKHKRPSGIPDRFSGSSSGNTASLTITGAQAEDEADYYCVTRNRYGNPHVLFGGGTQLTVL |
| no binding (tested: 50 nM) | no binding (tested: 50 nM) | no binding (tested: 50 nM) | 1.1 | 1.35 | 1.32 | ~0.5 | ~0.4 | 0.327 | 0.94 | 3.64 | – | – | – | AbH (antibody, IgG1, V domains shown, As for AbA: IgG1/lambda, CDR3 graft, residue limits derived; also called VHP/VL19) VH: QVQLQESGPGLVKPSETLSLTCAVSGYSISSGYYWGWIRQPPGKGLEWIGSISHTGNTYYNPPLKSRVTISVDTSKNQFSLKLSSVTAADTAVYYCARGGGISRPEYWGQGTLVTVSS VL: SSELTQDPAVSVALGQTVRITCQGDSLRTYYASWYQQKPGQAPVLVIYGKHKRPSGIPDRFSGSSSGNTASLTITGAQAEDEADYYCVARAVRGNPHVLFGGGTQLTVL |
| no binding (tested: 50 nM) | no binding (tested: 50 nM) | no binding (tested: 50 nM) | 1.09 | 1.24 | 1.21 | ~0.4 | ~0.9 | 0.224 | 1 | 3.8 | 0.107 | no binding (tested: 13 nM) | – | AbI (antibody, IgG1, V domains shown, As for AbA: IgG1/lambda, CDR3 graft, residue limits derived; also called VHP/VL24) VH: QVQLQESGPGLVKPSETLSLTCAVSGYSISSGYYWGWIRQPPGKGLEWIGSISHTGNTYYNPPLKSRVTISVDTSKNQFSLKLSSVTAADTAVYYCARGGGISRPEYWGQGTLVTVSS VL: SSELTQDPAVSVALGQTVRITCQGDSLRTYYASWYQQKPGQAPVLVIYGKHKRPSGIPDRFSGSSSGNTASLTITGAQAEDEADYYCIARSNKGNPHVLFGGGTQLTVL |
| no binding (tested: 50 nM) | no binding (tested: 50 nM) | no binding (tested: 50 nM) | 1.11 | 1.26 | 1.42 | – | – | 0.04 | 0.56 | 2.28 | – | – | ~0.8 | AbE (antibody, IgG1, V domains shown, As for AbA: IgG1/lambda, CDR3 graft, residue limits derived; also called VHP/VL14) VH: QVQLQESGPGLVKPSETLSLTCAVSGYSISSGYYWGWIRQPPGKGLEWIGSISHTGNTYYNPPLKSRVTISVDTSKNQFSLKLSSVTAADTAVYYCARGGGISRPEYWGQGTLVTVSS VL: SSELTQDPAVSVALGQTVRITCQGDSLRTYYASWYQQKPGQAPVLVIYGKHKRPSGIPDRFSGSSSGNTASLTITGAQAEDEADYYCMARSRKGNPHVLFGGGTQLTVL |
| no binding (tested: 50 nM) | no binding (tested: 50 nM) | no binding (tested: 50 nM) | 1.26 | 1.45 | 1.51 | ~0.9 | ~1 | 0.227 | 0.68 | 4.25 | – | – | – | AbL (antibody, IgG1, V domains shown, As for AbA: IgG1/lambda, CDR3 graft, residue limits derived; also called VH3/VL13) VH: QVQLQESGPGLVKPSETLSLTCAVSGYSISSGYYWGWIRQPPGKGLEWIGSISHTGNTYYNPPLKSRVTISVDTSKNQFSLKLSSVTAADTAVYYCARFMGFGRPEYWGQGTLVTVSS VL: SSELTQDPAVSVALGQTVRITCQGDSLRTYYASWYQQKPGQAPVLVIYGKHKRPSGIPDRFSGSSSGNTASLTITGAQAEDEADYYCVTRNRYGNPHVLFGGGTQLTVL |
| no binding (tested: 50 nM) | no binding (tested: 50 nM) | no binding (tested: 50 nM) | 1 | 1.35 | 1.46 | ~0.5 | ~0.5 | 0.304 | 0.54 | 2.41 | – | – | ~0.7 | AbF (antibody, IgG1, V domains shown, As for AbA: IgG1/lambda, CDR3 graft, residue limits derived; also called VHP/VL17) VH: QVQLQESGPGLVKPSETLSLTCAVSGYSISSGYYWGWIRQPPGKGLEWIGSISHTGNTYYNPPLKSRVTISVDTSKNQFSLKLSSVTAADTAVYYCARGGGISRPEYWGQGTLVTVSS VL: SSELTQDPAVSVALGQTVRITCQGDSLRTYYASWYQQKPGQAPVLVIYGKHKRPSGIPDRFSGSSSGNTASLTITGAQAEDEADYYCSTRSRKGNPHVLFGGGTQLTVL |

Reference: patent US20120276102A1 (Pfizer, published 2012)
